Laboratory results as given in the supplement of paper PMC10567573.

B1: PHTF1 (parent)
chain: SRHLNSQVKKTTTRWCHIVRDSDS

Variants of: B1
Assay: protein stability index of a GFP-peptide fusion (GPS, HEK-293T) (PSI 1-6); higher = more stable
Conditions: c terminus: a fixed tail appended
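Also: lentivirally expressed fusions sorted by FACS into six bins by GFP to DsRed ratio, PSI derived from sequencing read proportions per bin multiplied by bin number.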

| Variant | protein stability index |
| --- | --- |
| SRHLNSQVKKTFTRWCHIVRDSDS [T12F] | 1.66 |
| SRHLNSQVKKTMTRWCHIVRDSDS [T12M] | 1.76 |
| SRHLNSQVKKTGTRWCHIVRDSDS [T12G] | 1.64 |
| SRHLNSQVKKTNTRWCHIVRDSDS [T12N] | 1.76 |
| SRHLPSQVKKTTTRWCHIVRDSDS [N5P] | 2.22 |
| SRHLASQVKKTTTRWCHIVRDSDS [N5A] | 2.19 |
| SRHTNSQVKKTTTRWCHIVRDSDS [L4T] | 2.06 |
| SRHVNSQVKKTTTRWCHIVRDSDS [L4V] | 2.03 |
| SRHINSQVKKTTTRWCHIVRDSDS [L4I] | 2.75 |
| SRHWNSQVKKTTTRWCHIVRDSDS [L4W] | 2.25 |
| SRHYNSQVKKTTTRWCHIVRDSDS [L4Y] | 1.76 |
| SRHMNSQVKKTTTRWCHIVRDSDS [L4M] | 1.76 |
| SRHKNSQVKKTTTRWCHIVRDSDS [L4K] | 2.56 |
| SRHLNSQVKKTTTRWCCIVRDSDS [H17C] | 1.66 |
| SRHLNSQVKKTTTRWCVIVRDSDS [H17V] | 1.71 |
| SRHLNSQVKKTTTRWCSIVRDSDS [H17S] | 2.31 |
| SRHLNSQVKKTTTRWCTIVRDSDS [H17T] | 1.91 |
| SRHLNSQVKKTTTRWCEIVRDSDS [H17E] | 1.29 |
| SRHLNSCVKKTTTRWCHIVRDSDS [Q7C] | 2.08 |
| SRHLNSEVKKTTTRWCHIVRDSDS [Q7E] | 2.4 |
| SRHLNSLVKKTTTRWCHIVRDSDS [Q7L] | 1.84 |
| SRHLNSWVKKTTTRWCHIVRDSDS [Q7W] | 2.84 |
| SRHLNSAVKKTTTRWCHIVRDSDS [Q7A] | 2.6 |
| SRHLNSIVKKTTTRWCHIVRDSDS [Q7I] | 2.17 |

| Variant | protein stability index |
| --- | --- |
| SRHLNSYVKKTTTRWCHIVRDSDS [Q7Y] | 1.68 |
| SRHLNSRVKKTTTRWCHIVRDSDS [Q7R] | 2 |
| SRHLNSQVKKITTRWCHIVRDSDS [T11I] | 1.67 |
| SRHLNSQVKKDTTRWCHIVRDSDS [T11D] | 2.97 |
| SRHLNSQVKKGTTRWCHIVRDSDS [T11G] | 2.48 |
| SRHLNSQVKKWTTRWCHIVRDSDS [T11W] | 2.02 |
| SRHLNSQVKKQTTRWCHIVRDSDS [T11Q] | 2.43 |
| SRHLNSQVKKTTTEWCHIVRDSDS [R14E] | 3.35 |
| SRHLNSQVKKTTTMWCHIVRDSDS [R14M] | 1.6 |
| SRHLNSQVKKTTTDWCHIVRDSDS [R14D] | 3 |
| FRHLNSQVKKTTTRWCHIVRDSDS [S1F] | 1.76 |
| RRHLNSQVKKTTTRWCHIVRDSDS [S1R] | 2.51 |
| GRHLNSQVKKTTTRWCHIVRDSDS [S1G] | 2.06 |
| YRHLNSQVKKTTTRWCHIVRDSDS [S1Y] | 2.25 |
| ERHLNSQVKKTTTRWCHIVRDSDS [S1E] | 1.8 |
| SRHLNSQVKKTTTRWCHIVRDSDI [S24I] | 1.36 |
| SRHLNSQVKKTTTRWCHIVRDSDK [S24K] | 1.92 |
| SRHLNSQVKKTTTRWCHIVRDSDV [S24V] | 1.88 |
| SRHLNSQVKKTTTRWCHIVRDSDL [S24L] | 1.75 |
| SEHLNSQVKKTTTRWCHIVRDSDS [R2E] | 2.35 |
| SNHLNSQVKKTTTRWCHIVRDSDS [R2N] | 1.87 |
| SAHLNSQVKKTTTRWCHIVRDSDS [R2A] | 2.38 |
| SRHLNSQVKKTTTRWLHIVRDSDS [C16L] | 2.79 |
| SRHLNSQVKKTTTRWTHIVRDSDS [C16T] | 2.01 |

| Variant | protein stability index |
| --- | --- |
| SRHLNSQVDKTTTRWCHIVRDSDS [K9D] | 2.23 |
| SRHLNSQVEKTTTRWCHIVRDSDS [K9E] | 2.33 |
| SRHLNSQVPKTTTRWCHIVRDSDS [K9P] | 2.71 |
| SRHLNSQVLKTTTRWCHIVRDSDS [K9L] | 2.21 |
| SRHLNSQVVKTTTRWCHIVRDSDS [K9V] | 3.18 |
| SRHLNSQVKKTTYRWCHIVRDSDS [T13Y] | 1.72 |
| SRHLNSQVKKTTARWCHIVRDSDS [T13A] | 2.31 |
| SRHLNSQVKKTTVRWCHIVRDSDS [T13V] | 3.04 |
| SRHLNSQVKKTTTRWCHIIRDSDS [V19I] | 1.75 |
| SRHLNSQVKKTTTRWCHICRDSDS [V19C] | 2.19 |
| SRHLNSQVKKTTTRWCHIERDSDS [V19E] | 3.71 |
| SRHLNSQVKKTTTRWCHIGRDSDS [V19G] | 2.4 |
| SRHLNSQVKKTTTRWCHIKRDSDS [V19K] | 2.3 |
| SRHLNSQVKKTTTRWCHIVNDSDS [R20N] | 1.45 |
| SRHLNSQVKKTTTRWCHIVLDSDS [R20L] | 2.17 |
| SRHLNSQVKKTTTRWCHIVDDSDS [R20D] | 2.27 |
| SRHLNSQVKKTTTRWCHIVKDSDS [R20K] | 1.25 |
| SRHLNSQVKKTTTRWCHIVCDSDS [R20C] | 1.39 |
| SRHLNRQVKKTTTRWCHIVRDSDS [S6R] | 2.17 |
| SRHLNGQVKKTTTRWCHIVRDSDS [S6G] | 1.98 |
| SRHLNMQVKKTTTRWCHIVRDSDS [S6M] | 1.93 |
| SRHLNTQVKKTTTRWCHIVRDSDS [S6T] | 1.83 |
| SRHLNSQVKKTTTRWCHIVRDSQS [D23Q] | 1.84 |
| SRHLNSQVKKTTTRWCHIVRDSMS [D23M] | 2.19 |

| Variant | protein stability index |
| --- | --- |
| SRHLNSQVKKTTTRWCHIVRDSTS [D23T] | 1.78 |
| SRHLNSQVKKTTTRMCHIVRDSDS [W15M] | 3.22 |
| SRHLNSQVKKTTTRCCHIVRDSDS [W15C] | 2.74 |
| SRHLNSQVKKTTTRNCHIVRDSDS [W15N] | 3.56 |
| SRHLNSQVKKTTTRFCHIVRDSDS [W15F] | 3.71 |
| SRHLNSQVKKTTTRACHIVRDSDS [W15A] | 2.37 |
| SRHLNSQVKKTTTRHCHIVRDSDS [W15H] | 3.53 |
| SRHLNSQVKKTTTRWCHVVRDSDS [I18V] | 1.73 |
| SRDLNSQVKKTTTRWCHIVRDSDS [H3D] | 1.58 |
| SRKLNSQVKKTTTRWCHIVRDSDS [H3K] | 2.02 |
| SRHLNSQVKKTTTRWCHIVRGSDS [D21G] | 1.7 |
| SRHLNSQVKKTTTRWCHIVRLSDS [D21L] | 3.98 |
| SRHLNSQVKATTTRWCHIVRDSDS [K10A] | 2.76 |
| SRHLNSQVKSTTTRWCHIVRDSDS [K10S] | 2.87 |
| SRHLNSQVKLTTTRWCHIVRDSDS [K10L] | 1.8 |
| SRHLNSQVKRTTTRWCHIVRDSDS [K10R] | 1.8 |
| SRHLNSQVKGTTTRWCHIVRDSDS [K10G] | 2.55 |
| SRHLNSQQKKTTTRWCHIVRDSDS [V8Q] | 1.98 |
| SRHLNSQMKKTTTRWCHIVRDSDS [V8M] | 2.08 |
| SRHLNSQEKKTTTRWCHIVRDSDS [V8E] | 2.79 |
| SRHLNSQYKKTTTRWCHIVRDSDS [V8Y] | 1.57 |
| SRHLNSQGKKTTTRWCHIVRDSDS [V8G] | 2.57 |
